From patent US20210253716A1 (Regeneron, published 2021)
Substitutions are numbered along the chain they refer to. Blank lines part the entries; values can stand above or below the binder they belong to.

What was measured:
[1] = biological target: T1, full length human ACVR1 (R206H) on HEK293/BRE-luc/hACVR1-R206H-clone H2 cells (human, UniProt Q04771 21-509); experiment: flow cytometry, 66.6 nM antibody, HEK293/hACVR1-R206H cells
T1 construct: also called HEK293/hACVR1-R206H
T1 sequence: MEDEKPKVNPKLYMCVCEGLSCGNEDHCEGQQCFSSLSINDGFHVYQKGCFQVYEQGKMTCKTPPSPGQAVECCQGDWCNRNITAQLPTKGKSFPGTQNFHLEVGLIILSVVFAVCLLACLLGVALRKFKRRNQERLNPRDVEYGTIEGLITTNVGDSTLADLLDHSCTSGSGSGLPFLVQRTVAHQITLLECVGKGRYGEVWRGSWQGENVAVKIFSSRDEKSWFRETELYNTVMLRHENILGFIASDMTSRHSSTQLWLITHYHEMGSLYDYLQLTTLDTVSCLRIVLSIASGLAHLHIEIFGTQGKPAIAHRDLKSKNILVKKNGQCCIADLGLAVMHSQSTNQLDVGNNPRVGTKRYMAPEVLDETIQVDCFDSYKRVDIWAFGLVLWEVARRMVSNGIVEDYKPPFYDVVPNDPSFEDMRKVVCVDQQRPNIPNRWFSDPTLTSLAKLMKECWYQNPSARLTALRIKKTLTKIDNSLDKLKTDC
Experimental: (§1) Cells were fixed using BD CytoFix™ (Becton Dickinson, #554655) and analyzed on either Hypercyt® or IQue® Flow Cytometers (Intellicyt®). Unstained and secondary antibody alone controls were also tested for all cell lines. The results were analyzed using ForeCyt® (IntelliCyt®) software to determine the geometric means of fluorescence for viable cells and binding ratios were calculated by normalizing the geometric mean value of the test condition by the geometric mean value of the corresponding unstained cells.

[2] = biological target: T2, full length wild type human ACVR1 on HEK293/BRE-luc/hACVR1-wild type cells (human, UniProt Q04771 21-509); experiment: flow cytometry, 66.6 nM antibody, HEK293/hACVR1-wt cells
T2 construct: also called HEK293/hACVR1-wt; hACVR1-wt
T2 sequence: T1 sequence with H186R
Experimental: as §1

[3] = biological target: T3, human ACVR1 extracellular domain expressed with a C-terminal mouse IgG2a Fc tag (human); experiment: SPR (Biacore), mAb captured, 25 C
T3 construct: also called hACVR1-mFc
T3 chain: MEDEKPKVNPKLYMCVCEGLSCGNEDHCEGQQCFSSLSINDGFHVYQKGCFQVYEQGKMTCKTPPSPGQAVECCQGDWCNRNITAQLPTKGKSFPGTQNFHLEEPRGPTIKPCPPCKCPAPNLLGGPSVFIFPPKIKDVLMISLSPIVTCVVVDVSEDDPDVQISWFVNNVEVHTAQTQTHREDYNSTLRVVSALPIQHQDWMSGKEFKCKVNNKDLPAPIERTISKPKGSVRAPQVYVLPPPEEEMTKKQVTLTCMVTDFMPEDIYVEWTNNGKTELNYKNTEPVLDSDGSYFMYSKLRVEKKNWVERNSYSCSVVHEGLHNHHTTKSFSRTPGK
In short: (§2)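 Captured antibody surfaces (anti-human Fc) received ACVR1 protein in HEPES-buffered saline with EDTA and Tween-20, pH 7.4. Kinetics were fitted 1:1, with KD taken from the rate constants.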

[4] = biological target: T4, mouse ACVR1 extracellular domain expressed with a C-terminal myc-myc-hexahistidine tag (mouse); experiment: SPR (Biacore), mAb captured, 25 C
T4 construct: also called mACVR1-MMH; mACVR1-mmh
T4 chain: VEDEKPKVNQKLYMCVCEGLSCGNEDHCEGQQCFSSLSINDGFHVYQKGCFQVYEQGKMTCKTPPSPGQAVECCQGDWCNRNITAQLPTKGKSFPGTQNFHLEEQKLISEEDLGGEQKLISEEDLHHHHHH
In short: as §2

[5] = biological target: T5, human ACVR1 extracellular domain expressed with a C-terminal myc-myc-hexahistidine tag (human); experiment: SPR (Biacore), mAb captured, 25 C
T5 construct: also called hACVR1-MMH
T5 chain: T4 chain with V1M, Q10P
In short: as §2

[6] = biological target: T3, human ACVR1 extracellular domain …; experiment: SPR (Biacore), mAb captured, 37 C
In short: (§3)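 Binding is measured by real-time SPR with mAbs held via anti-human Fc and ACVR1 as analyte, dissociation monitored 10-15 minutes. Equilibrium constants and half-lives derive from kd and ka of a 1:1 fit in HBS-ET at pH 7.4.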

[7] = biological target: T4, mouse ACVR1 extracellular domain …; experiment: SPR (Biacore), mAb captured, 37 C
In short: as §3

[8] = biological target: T5, human ACVR1 extracellular domain …; experiment: SPR (Biacore), mAb captured, 37 C
In short: as §2

[9] = biological target: T1, full length human ACVR1 (R206H) on …; experiment: cell-based or functional assay

MFI - Normalized to Unstained Control [1]: 235 fold
MFI - Normalized to Unstained Control [2]: 183 fold
100 nM Ag Bound (RU) [3]: 268 RU
Kd [3]: 0.0123 µM
koff [3]: 0.00802 s⁻¹
kon [3]: 652000 M⁻¹ s⁻¹
t½ [3]: 84 s
900 nM or 100 nM Ag Bound (RU) [4]: 41 RU
Kd [4]: 0.836 µM
koff [4]: 0.575 s⁻¹
kon [4]: 688000 M⁻¹ s⁻¹
t½ [4]: 1.2 s
900 nM or 100 nM Ag Bound (RU) [5]: 44 RU
Kd [5]: 1.02 µM
koff [5]: 0.42 s⁻¹
kon [5]: 413000 M⁻¹ s⁻¹
t½ [5]: 1.8 s
100 nM Ag Bound (RU) [6]: 243 RU
Kd [6]: 0.0792 µM
koff [6]: 0.0577 s⁻¹
kon [6]: 729000 M⁻¹ s⁻¹
t½ [6]: 12 s
900 nM or 100 nM Ag Bound (RU) [7]: 23 RU
900 nM or 100 nM Ag Bound (RU) [8]: 25 RU
IC50 [M], BRE-luc reporter, 3 nM hActivin A [9]: 1.9e-08 M
IC50 [M], BRE-luc reporter, 3 nM hBMP7 [9]: 1.6e-08 M
B1: mAb22125 (antibody, human IgG4 S228P, kappa, V domains shown)
VH: QVQLVQSGAEVKKPGASVKVSCKASGYTFTGYYMHWVRQAPGQGLEWMGWINPNSVGTNFAQKFQGRVTMTRDTSISTAYMELSRLRSDDTAVYYCTRDGAAAGLFDYWGQGTLVTVSS
VL: DIQMTQSPSSLSASVGDRVTITCRASQGINNYLAWYQQKPGKVPKLLIYAASTLQSGVPSRFSGSGSGTDFTLTISSLQPEDVATYYCQKFNSAPLTFGGGTKVEIKR

MFI - Normalized to Unstained Control [1]: 4 fold
MFI - Normalized to Unstained Control [2]: 4 fold
100 nM Ag Bound (RU) [3]: 264 RU
Kd [3]: 0.0114 µM
koff [3]: 0.000765 s⁻¹
kon [3]: 66900 M⁻¹ s⁻¹
t½ [3]: 900 s
900 nM or 100 nM Ag Bound (RU) [4]: 94 RU
Kd [4]: 0.171 µM
koff [4]: 0.00478 s⁻¹
kon [4]: 28000 M⁻¹ s⁻¹
t½ [4]: 144 s
900 nM or 100 nM Ag Bound (RU) [5]: 93 RU
Kd [5]: 0.145 µM
koff [5]: 0.00485 s⁻¹
kon [5]: 33400 M⁻¹ s⁻¹
t½ [5]: 144 s
100 nM Ag Bound (RU) [6]: 317 RU
Kd [6]: 0.0301 µM
koff [6]: 0.0025 s⁻¹
kon [6]: 83300 M⁻¹ s⁻¹
t½ [6]: 276 s
900 nM or 100 nM Ag Bound (RU) [7]: 85 RU
Kd [7]: 0.504 µM
koff [7]: 0.0297 s⁻¹
kon [7]: 58900 M⁻¹ s⁻¹
t½ [7]: 23.4 s
900 nM or 100 nM Ag Bound (RU) [8]: 86 RU
Kd [8]: 0.438 µM
koff [8]: 0.0308 s⁻¹
kon [8]: 70400 M⁻¹ s⁻¹
t½ [8]: 22.2 s
B2: mAb22115 (antibody, human IgG4 S228P, kappa, V domains shown)
VH: EVQLVESGGGLVQPGGSLRLSCAASGFTSSRYWMSWVRQAPGKGLEWLANINQDGSEKYYLESLRGRFTISRDNAKNSLYLQMNNLRAEDTAVYYCARDEEGYWGQGTLVTVSS
VL: DVVMTQSLLSLSVTLGQPASISCRSSQSLVYSDGDTYLSWFQQRPGQSPRRLIYKVSHRDSGVPDRFRGSGSGTDFTLKISRVEAEDVGIYYCMQGTHWPPTFGQGTKVEIKR
